Literature values as cited in patent US20200069786A1, “COMPOSITION AND PROCESS FOR PREPARING VACCINE” (TREOS BIO ZRT., priority 2018, published 2020).
Like-named read-outs stand apart in the source and are kept apart here.

Tested on: TSA
[1] = TSA expression rate in BLADDER cancer
[2] = TSA expression rate in Esophageal
[3] = TSA expression rate in HEAD and NECK
[4] = TSA expression rate in LEUKEMIAS
[5] = TSA expression rate in MELANOMA
[6] = TSA expression rate in GASTRIC cancer
[7] = TSA expression rate in PROSTATE cancer
[8] = TSA expression rate in Cervical cancer
[9] = TSA expression rate in LUNG cancer
[10] = TSA expression rate in LYMPHOMAS
[11] = TSA expression rate in PEDIATRIC

B1: MAGE-A9 (protein, UniProt P43362 1-315, looked up)
Melanoma-associated antigen 9: MSLEQRSPHCKPDEDLEAQGEDLGLMGAQEPTGEEEETTSSSDSKEEEVSAAGSSSPPQSPQGGASSSISVYYTLWSQFDEGSSSQEEEEPSSSVDPAQLEFMFQEALKLKVAELVHFLLHKYRVKEPVTKAEMLESVIKNYKRYFPVIFGKASEFMQVIFGTDVKEVDPAGHSYILVTALGLSCDSMLGDGHSMPKAALLIIVLGVILTKDNCAPEEVIWEALSVMGVYVGKEHMFYGEPRKLLTQDWVQENYLEYRQVPGSDPAHYEFLWGSKAHAETSYEKVINYLVMLNAREPICYPSLYEEVLGEEQEGV
BREAST
  TSA Expression Rate (ER): 44%
HCC
  TSA Expression Rate (ER): 5%
OVARIAN
  TSA Expression Rate (ER): 37%
[1]
  Expression Rate (ER) %: 61%
[2]
  Expression Rate (ER) %: 55%
[3]
  Expression Rate (ER) %: 44%
TSA expression rate in Kidney
  Expression Rate (ER) %: 55%
[4]
  Expression Rate (ER) %: 9%
[5]
  Expression Rate (ER) %: 12%

B2: AKAP-3 (protein, UniProt O75969 1-853, looked up)
A-kinase anchor protein 3: MSEKVDWLQSQNGVCKVDVYSPGDNQAQDWKMDTSTDPVRVLSWLRRDLEKSTAEFQDVRFKPGESFGGETSNSGDPHKGFSVDYYNTTTKGTPERLHFEMTHKEIPCQGPRAQLGNGSSVDEVSFYANRLTNLVIAMARKEINEKIDGSENKCVYQSLYMGNEPTPTKSLSKIASELVNETVSACSRNAAPDKAPGSGDRVSGSSQSPPNLKYKSTLKIKESTKERQGPDDKPPSKKSFFYKEVFESRNGDYAREGGRFFPRERKRFRGQERPDDFTASVSEGIMTYANSVVSDMMVSIMKTLKIQVKDTTIATILLKKVLLKHAKEVVSDLIDSFLRNLHSVTGTLMTDTQFVSAVKRTVFSHGSQKATDIMDAMLRKLYNVMFAKKVPEHVRKAQDKAESYSLISMKGMGDPKNRNVNFAMKSETKLREKMYSEPKSEEETCAKTLGEHIIKEGLTLWHKTQQKECKSLGFQHAAFEAPNTQRKPASDISFEYPEDIGNLSLPPYPPEKPENFMYDSDSWAEDLIVSALLLIQYHLAQGGRRDARSFVEAAGTTNFPANEPPVAPDESCLKSAPIVGDQEQAEKKDLRSVFFNFIRNLLSETIFKRDQSPEPKVPEQPVKEDRKLCERPLASSPPRLYEDDETPGALSGLTKMAVSQIDGHMSGQMVEHLMNSVMKLCVIIAKSCDASLAELGDDKSGDASRLTSAFPDSLYECLPAKGTGSAEAVLQNAYQAIHNEMRGTSGQPPEGCAAPTVIVSNHNLTDTVQNKQLQAVLQWVAASELNVPILYFAGDDEGIQEKLLQLSAAAVDKGCSVGEVLQSVLRYEKERQLNEAVGNVTPLQLLDWLMVNL
BREAST
  TSA Expression Rate (ER): 40%
HCC
  TSA Expression Rate (ER): 50%
LUNG
  TSA Expression Rate (ER): 46%
OVARIAN
  TSA Expression Rate (ER): 48%
TSA expression rate in CRC
  Expression Rate (ER) %: 83%
[6]
  Expression Rate (ER) %: 89%

B3: FTHL17 (protein, UniProt Q9BXU8 1-183, looked up)
Ferritin heavy …: MATAQPSQVRQKYDTNCDAAINSHITLELYTSYLYLSMAFYFNRDDVALENFFRYFLRLSDDKMEHAQKLMRLQNLRGGHICLHDIRKPECQGWESGLVAMESAFHLEKNVNQSLLDLYQLAVEKGDPQLCHFLESHYLHEQVKTIKELGGYVSNLRKICSPEAGLAEYLFDKLTLGGRVKET
BRAIN
  TSA Expression Rate (ER): 82%
BREAST
  TSA Expression Rate (ER): 14%
LUNG
  TSA Expression Rate (ER): 25%
THYROID
  TSA Expression Rate (ER): 0%
[1]
  Expression Rate (ER) %: 22%
TSA expression rate in CRC
  Expression Rate (ER) %: 0%
[2]
  Expression Rate (ER) %: 0%
[3]
  Expression Rate (ER) %: 10%
TSA expression rate in Kidney
  Expression Rate (ER) %: 0%
[5]
  Expression Rate (ER) %: 0%
[7]
  Expression Rate (ER) %: 0%

B4: SSX-2 (protein, UniProt Q16385 1-188, looked up)
Protein SSX2: MNGDDAFARRPTVGAQIPEKIQKAFDDIAKYFSKEEWEKMKASEKIFYVYMKRKYEAMTKLGFKATLPPFMCNKRAEDFQGNDLDNDPNRGNQVERPQMTFGRLQGISPKIMPKKPAEEGNDSEEVPEASGPQNDGKELCPPGKPTTSEKIHERSGPKRGEHAWTHRLRERKQLVIYEEISDPEEDDE
BRAIN
  TSA Expression Rate (ER): 4%
BREAST
  TSA Expression Rate (ER): 7%
HCC
  TSA Expression Rate (ER): 46%
OVARIAN
  TSA Expression Rate (ER): 7%
PANCREATIC
  TSA Expression Rate (ER): 4%
THYROID
  TSA Expression Rate (ER): 8%
[1]
  Expression Rate (ER) %: 13%
TSA expression rate in CRC
  Expression Rate (ER) %: 5%
[8]
  Expression Rate (ER) %: 4%
[2]
  Expression Rate (ER) %: 0%
[6]
  Expression Rate (ER) %: 3%
[3]
  Expression Rate (ER) %: 17%
TSA expression rate in Kidney
  Expression Rate (ER) %: 2%
[4]
  Expression Rate (ER) %: 12%
[9]
  Expression Rate (ER) %: 10%
[10]
  Expression Rate (ER) %: 16%
[5]
  Expression Rate (ER) %: 35%
[11]
  Expression Rate (ER) %: 44%
[7]
  Expression Rate (ER) %: 28%

B5: MAGE-A4 (protein, UniProt P43358 1-317, looked up)
Melanoma-associated antigen 4: MSSEQKSQHCKPEEGVEAQEEALGLVGAQAPTTEEQEAAVSSSSPLVPGTLEEVPAAESAGPPQSPQGASALPTTISFTCWRQPNEGSSSQEEEGPSTSPDAESLFREALSNKVDELAHFLLRKYRAKELVTKAEMLERVIKNYKRCFPVIFGKASESLKMIFGIDVKEVDPASNTYTLVTCLGLSYDGLLGNNQIFPKTGLLIIVLGTIAMEGDSASEEEIWEELGVMGVYDGREHTVYGEPRKLLTQDWVQENYLEYRQVPGSNPARYEFLWGPRALAETSYVKVLEHVVRVNARVRIAYPSLREAALLEEEEGV
BRAIN
  TSA Expression Rate (ER): 11%
BREAST
  TSA Expression Rate (ER): 9%
HCC
  TSA Expression Rate (ER): 7%
LUNG
  TSA Expression Rate (ER): 27%
OVARIAN
  TSA Expression Rate (ER): 37%
PANCREATIC
  TSA Expression Rate (ER): 2%
THYROID
  TSA Expression Rate (ER): 0%
[1]
  Expression Rate (ER) %: 27%
TSA expression rate in CRC
  Expression Rate (ER) %: 18%
[8]
  Expression Rate (ER) %: 23%
[2]
  Expression Rate (ER) %: 76%
[6]
  Expression Rate (ER) %: 24%
[3]
  Expression Rate (ER) %: 42%
TSA expression rate in Kidney
  Expression Rate (ER) %: 17%
[4]
  Expression Rate (ER) %: 36%
[5]
  Expression Rate (ER) %: 30%
[11]
  Expression Rate (ER) %: 41%
[7]
  Expression Rate (ER) %: 0%

B6: HOM-TES-85 (protein, UniProt Q9P127 1-313, looked up)
Leucine zipper protein 4: MASFRKLTLSEKVPPNHPSRKKVNFLDMSLDDIIIYKELEGTNAEEEKNKRQNHSKKESPSRQQSKAHRHRHRRGYSRCRSNSEEGNHDKKPSQKPSGFKSGQHPLNGQPLIEQEKCSDNYEAQAEKNQGQSEGNQHQSEGNPDKSEESQGQPEENHHSERSRNHLERSLSQSDRSQGQLKRHHPQYERSHGQYKRSHGQSERSHGHSERSHGHSERSHGHSERSHGHSKRSRSQGDLVDTQSDLIATQRDLIATQKDLIATQRDLIATQRDLIVTQRDLVATERDLINQSGRSHGQSERHQRYSTGKNTITT
BRAIN
  TSA Expression Rate (ER): 10%
BREAST
  TSA Expression Rate (ER): 47%
HCC
  TSA Expression Rate (ER): 19%
OVARIAN
  TSA Expression Rate (ER): 32%
[1]
  Expression Rate (ER) %: 0%
[3]
  Expression Rate (ER) %: 4%
[9]
  Expression Rate (ER) %: 11%
[10]
  Expression Rate (ER) %: 14%

B7: AKAP-4 (protein, UniProt Q5JQC9 189-854, looked up)
A-kinase anchor protein 4: QSPSAPPAKPPSTQRAVISPDGECSIDDLSFYVNRLSSLVIQMAHKEIKEKLEGKSKCLHHSICPSPGNKERISPRTPASKIASEMAYEAVELTAAEMRGTGEESREGGQKSFLYSELSNKSKSGDKQMSQRESKEFADSISKGLMVYANQVASDMMVSLMKTLKVHSSGKPIPASVVLKRVLLRHTKEIVSDLIDSCMKNLHNITGVLMTDSDFVSAVKRNLFNQWKQNATDIMEAMLKRLVSALIGEEKETKSQSLSYASLKAGSHDPKCRNQSLEFSTMKAEMKERDKGKMKSDPCKSLTSAEKVGEHILKEGLTIWNQKQGNSCKVATKACSNKDEKGEKINASTDSLAKDLIVSALKLIQYHLTQQTKGKDTCEEDCPGSTMGYMAQSTQYEKCGGGQSAKALSVKQLESHRAPGPSTCQKENQHLDSQKMDMSNIVLMLIQKLLNENPFKCEDPCEGENKCSEPRASKAASMSNRSDKAEEQCQEHQELDCTSGMKQANGQFIDKLVESVMKLCLIMAKYSNDGAALAELEEQAASANKPNFRGTRCIHSGAMPQNYQDSLGHEVIVNNQCSTNSLQKQLQAVLQWIAASQFNVPMLYFMGDKDGQLEKLPQVSAKAAEKGYSVGGLLQEVMKFAKERQPDEAVGKVARKQLLDWLLANL
BREAST
  TSA Expression Rate (ER): 85%
LUNG
  TSA Expression Rate (ER): 25%
OVARIAN
  TSA Expression Rate (ER): 89%
TSA expression rate in CRC
  Expression Rate (ER) %: 74%
[8]
  Expression Rate (ER) %: 86%
[7]
  Expression Rate (ER) %: 65%

B8: SPAN-Xc (protein, UniProt Q9NY87 1-97, looked up)
Sperm protein associated with …: MDKQSSAGGVKRSVPCDSNEANEMMPETSSGYSDPQPAPKKLKTSESSTILVVRYRRNVKRTSPEELVNDHARENRINPLQMEEEEFMEIMVEIPAK
BREAST
  TSA Expression Rate (ER): 26%
HCC
  TSA Expression Rate (ER): 60%
OVARIAN
  TSA Expression Rate (ER): 0%
PANCREATIC
  TSA Expression Rate (ER): 0%
[1]
  Expression Rate (ER) %: 9%
TSA expression rate in CRC
  Expression Rate (ER) %: 24%
[2]
  Expression Rate (ER) %: 0%
[6]
  Expression Rate (ER) %: 0%
[4]
  Expression Rate (ER) %: 4%
[9]
  Expression Rate (ER) %: 17%
[5]
  Expression Rate (ER) %: 70%
